# The supplement of paper PMC10567573
# ± gives the standard deviation.
# Experiment: protein stability index of a GFP-peptide fusion (GPS, HEK-293T) (PSI 1-6); higher = more stable
# [1] = treatment: DMSO, c terminus: a fixed tail appended
# [2] = treatment: MLN4924 1 uM, 8 h, c terminus: a fixed tail appended
# [3] = treatment: DMSO, c terminus: native
# [4] = treatment: MLN4924 1 uM, 8 h, c terminus: native
# 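Note: 24-mer peptide tiles fused after GFP, lentivirally expressed, FACS-sorted into six equal bins by GFP/DsRed ratio, decoded by Illumina sequencing, PSI is the read-weighted mean bin number.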
Sequence,protein stability index [1],protein stability index [2],protein stability index [3],protein stability index [4]
DIQIVERKKSADVLALADEAGYYF [ADAMTSL2],3.08 ± 0.23,3.39 ± 0.2,,
GEEQLKTHKKCKEEVVSTLDAVQV [FCHO1],4.13 ± 0.38,4.12 ± 0.19,,
ATKITLSAIYKWITDNFCYFRHAD [FOXJ1],3 ± 0.21,2.77 ± 0.49,,
PNAGEQPGQVAGADFESEDEGEEF [EID1],5.59 ± 0.28,5.46 ± 0.33,,
SGSGNGSSTLNPSTSSSTQGDPAF [NOL4L],5.04 ± 0.34,5.07 ± 0.17,,
CSISKMEEEAGQTSIEPSKSSIIP [ZER1],4.59 ± 0.28,4.53 ± 0.2,,
FHVDSAAEYYRLHLEGYHGTAGDS [TNXB],2.81 ± 0.27,3.17 ± 0.31,,
SPYFHDQVLLKGMTSISLPSVMDP [ZBTB22],3.03 ± 0.3,3.12 ± 0.28,,
NLENPMRRIHSLPQKLLGCSPALK [CDC25A],2.64 ± 0.23,3.11 ± 0.32,,
IASSDSEVEIVGVQEHARCVHPRG [C18orf25],4.49 ± 0.37,4.6 ± 0.1,,
SHPACPLEFAYYFRPGHLLANACL [ZSWIM9],2.81 ± 0.54,2.52 ± 0.56,,
TMLATRNFSAAKSLLNKKADGVKP [CAMK2B],3.73 ± 0.34,4.02 ± 0.32,,
PTHQAHTVGFLDEAIQPYRDRLRS [TRIM15],4.52 ± 0.039,4.44 ± 0.13,,
TQDPSQPNSTKNQSLPKASPVTTS [LCOR],5.21 ± 0.19,5.12 ± 0.23,,
KTQEHTPTPDDHVFRWLAYSYAST [CPXM2],2.14 ± 0.34,2.2 ± 0.3,,
PASDLEAALEAAGEGLNVIQQTTR [NANOGP8],4.93 ± 0.17,4.95 ± 0.44,,
WMKHNVADSQITTIGNLVPQKTYS [PTPRD],3.29 ± 0.55,3.17 ± 0.29,,
ELDPEVEGTKPSATEMIWAVLAAF [GOLPH3L],2.21 ± 0.36,2.37 ± 0.28,,
QAIDATVAAELLNHLLESMPLREG [HES6],2.43 ± 0.41,2.3 ± 0.28,,
VVCQPNEFIMPDSAVVGDVLVLTK [SEPHS2],2.35 ± 0.19,2.56 ± 0.36,,
TEDTPKVNADIEKVNQNQAKRCTV [NSDHL],5.42 ± 0.23,5.38 ± 0.21,,
SGKRLSGVSSVDSAFSSRGSLSLS [RIPK4],3.47 ± 0.62,3.57 ± 0.41,,

Sequence,protein stability index [1],protein stability index [2],protein stability index [3],protein stability index [4]
LTGQKAVKVHGLLKTFVKQTDHIK [GFOD1],2.85 ± 0.29,2.59 ± 0.27,,
TNDSLSLKPSWFDFGFAILGFAYA [MIA2],2.99 ± 0.53,2.49 ± 0.4,,
KRFASLSRFVETLVVADDKMAAFH [ADAMTS4],2.25 ± 0.52,2.06 ± 0.58,,
AYCLDQGAEDGDRAILYPCHGMSS [GALNT9],3.67 ± 0.29,3.69 ± 0.11,,
EEFILLSQGEVEKLIKCDEIQVDS [KLHL12],4.49 ± 0.58,4.45 ± 0.48,,
LYQRAPRNIHRHVILSEIKEAVAA [TCF25],2.75 ± 0.34,2.7 ± 0.25,,
GQSDFRPKNGRHAWIWHDCHRHYH [LOXL2],2.54 ± 0.29,3.03 ± 0.45,,
GLLLESLVPFIVNDNITNNFFRFL [DYNC2LI1],2.9 ± 0.44,3.17 ± 0.62,,
MASRKTKKKEGGALRAQRASSNVF [MYL5],4.13 ± 0.15,4.05 ± 0.25,,
CLPLTFCIHTGLSQYIAVEAAEGR [FBXO3],2.96 ± 0.72,2.4 ± 0.93,,
AFSSRLGGSRGAPGLLMAVGQDLY [DCAF4],2.19 ± 0.48,2.15 ± 0.38,,
GSGGGYGGGMRVCGFGGGAGSVFG [KRT15],2.18 ± 0.29,2.34 ± 0.22,,
LYLKQSDLASAAAKQIMEETYKME [INTS4],3.05 ± 0.17,3.3 ± 0.23,,
EKYSVATQLFIGGVTGWCTGFIFQ [FUNDC2],2.75 ± 0.75,3.06 ± 0.35,,
MKYTSEKFLEICKLSGFMSKLVPA [TPRG1],3.05 ± 1,2.56 ± 0.45,,
REGALRAALQRSLAAALAQHSVPL [TRADD],2.25 ± 0.3,2.28 ± 0.2,,
IDASQLPHRVLETRGHAISILFGF [SMIM2],2.68 ± 0.54,2.51 ± 0.54,,
STLLPLAPSNSTSLNSTFGSTNLT [NFE2L1],3.64 ± 0.19,3.86 ± 0.16,,
PESRSLPSSPLRLGSYKAQKTSRS [PPEF2],5.29 ± 0.16,5.14 ± 0.24,,
ESQKKKQQDDSDEYDDDDSAASTS [ZNF207],5.7 ± 0.1,5.53 ± 0.18,,
GVTAIIFCVALSDYDLVLAEDEEM [GNAI1],3.86 ± 0.17,2.75 ± 0.9,,
VAMDTEFPGVVARPIGEFRSNADY [CNOT7],3.73 ± 0.38,3.78 ± 0.37,,

Sequence,protein stability index [1],protein stability index [2],protein stability index [3],protein stability index [4]
RLCLPALSQMGAQSSGKILLCPLC [TRIM15],2.35 ± 0.3,2.41 ± 0.21,,
NYCPQQTKITSAFKYINTVISCTI [EDNRA],3.3 ± 0.65,2.77 ± 0.18,,
LRCLDRDEPSKPTLALEYTYGRRA [DYNC2LI1],3.45 ± 0.14,3.41 ± 0.32,,
DIKQLIAKKIKLTAEAEELKPFFM [SOAT1],2.59 ± 0.59,2.15 ± 0.1,,
HVLLPVALEFQPQLVLVAAGFDAL [HDAC6],3.25 ± 0.43,2.78 ± 0.43,,
AALSEENTGKTYFFVANKYWRYDE [MMP1],2.49 ± 0.37,2.21 ± 0.18,,
NISELKRTFLETSTDTAVTNEWEK [EPB41L3],4.82 ± 0.25,4.686 ± 0.034,,
LTLCKSDLESQVESLREELICLKK [KRT34],2.89 ± 0.87,2.65 ± 0.27,,
KEQSKELQMKLEKLREKERKKEAK [FAM50A],5.02 ± 0.54,5.55 ± 0.16,,
PQGLFVEALSVPLSLCVSSHLALP [CLPTM1],2.96 ± 0.59,2.91 ± 0.41,,
LPHPKSMLQATAEANNLAAAASAK [ATL3],4.86 ± 0.27,5.07 ± 0.19,,
NYDKLSRSIRQYYKKGIIRKPDIS [SPDEF],2.55 ± 0.21,2.74 ± 0.34,,
SRDGATGHVLLTDSEFSMQEPMVP [PPFIA4],4.6 ± 0.27,4.6 ± 0.29,,
EWENNRESLIVFMEQVHRGIKGLV [CPXM2],2.27 ± 0.56,2.07 ± 0.37,,
KHWREWGSHAQTSQIQSIRRIQQ [CRYBA1],,,3.25 ± 0.69,3.19 ± 0.46
LWVPQPPPRTIKRTRRRLSRNRDP [PWWP2B],3.44 ± 0.35,3.82 ± 0.33,,
QWSSDVAPTSTCRTSVGVAVLGGF [KLHL20],2.69 ± 0.58,2.71 ± 0.86,,
PLLPLDMQGNQILVFPSSSSSSSS [ZBTB22],3.93 ± 0.24,4.1 ± 0.18,,
AQDLGELLATAEQEQLSLSQRQAK [LRRC45],5.25 ± 0.3,5.34 ± 0.058,,
TSRRPSGTGTGPEDGRPSLGSPYG [PDLIM4],4.67 ± 0.21,4.67 ± 0.2,,
IETYGPHVPELEMLGRLGYLNHVR [MNAT1],2.4 ± 0.1,2.62 ± 0.19,,
SSASYEKENEMMKSHVMDQAINNA [IKZF1],4.78 ± 0.19,4.74 ± 0.28,,

Sequence,protein stability index [1],protein stability index [2],protein stability index [3],protein stability index [4]
YHINSISVNSDCETYMSADDLRIN [PPP2R2C],2.89 ± 0.44,3.2 ± 0.29,,
TGGQTVVNPWIIIGGVATVVCQPN [SEPHS2],2.84 ± 0.76,2.62 ± 0.7,,
SQYFRSLFSSHPPLGGGVGGQDGL [KLHL14],2.72 ± 0.17,2.87 ± 0.21,,
SYSAGDSGDAAAQPAFTGIKGKEG [EPB41L3],5.37 ± 0.15,5.3 ± 0.25,,
IHCENCKTTLGWKYEQAFESSQKY [YPEL3],2.36 ± 0.38,2.62 ± 0.62,,
LQHLIGLSNLTHVLYPVPLESYED [PRAME],2.3 ± 0.24,2.54 ± 0.12,,
DTSGFPDLSDNRNEDPLVLLAWRC [FBXO33],2.67 ± 0.23,3 ± 0.46,,
NGDGAFLHDNHEQMPTEIEFPESR [ZNF649],5.31 ± 0.36,5.19 ± 0.45,,
IERQWGNLLGEGQHKCDECGKSFT [ZSCAN9],3.79 ± 0.34,3.55 ± 0.22,,
ALCENFPEEMATYLRYVRRLDFFE [CSNK1G1],2.21 ± 0.73,2.26 ± 0.26,,
MNYRRLGGGVGVIKMTHCESHIW [KLHL20],,,2.75 ± 0.32,2.34 ± 0.31
QEQEIDGKSLLLMTRNDVLTGLQL [SAMD13],3.23 ± 0.23,3.36 ± 0.24,,
KLFSTYLRPPHTSRGTSQTPNASS [LPCAT4],3.17 ± 0.19,3.08 ± 0.32,,
SSSSKLSRSPLKIVKKPKSMQCKV [EPB41L3],3.54 ± 0.11,3.41 ± 0.52,,
RFKDKSSEEAVREVHRLIEGKAPI [TPPP],4.6 ± 0.15,4.58 ± 0.18,,
AEPGFEPADCKRKEEAGAPGGGAG [CEBPB],5.48 ± 0.47,5.56 ± 0.15,,
DLLPTFRHTLQKLTCEFNNNHESL [FBXO39],2.27 ± 0.22,2.35 ± 0.48,,
MNRSIPVEVDESEPYPSQLLKPIP [TRAF3IP2],4.44 ± 0.19,4.45 ± 0.34,,
LMSGALAVNQKIDRESLCGASTSC [PCDHGC5],3.67 ± 0.4,3.6 ± 0.095,,
SRSESPPPLSDPKQAKVVARRESG [BRD3],5.5 ± 0.21,5.24 ± 0.17,,
LHREVRSTPLTATPGGRGDMKYGI [VTI1B],3.72 ± 0.24,3.67 ± 0.12,,
FLTVGSVLQMWHIVDKCTELLREG [ZBTB22],3.09 ± 0.55,3.4 ± 0.32,,
